Assay results reported in patent publication US20080219971A1 (VACCINEX, published 2008).

T1: human CD100-Fc (human, UniProt Q92854 22-734, limits assumed)
T1 construct: also called CD100-Fc antigen
T1 sequence (looked up): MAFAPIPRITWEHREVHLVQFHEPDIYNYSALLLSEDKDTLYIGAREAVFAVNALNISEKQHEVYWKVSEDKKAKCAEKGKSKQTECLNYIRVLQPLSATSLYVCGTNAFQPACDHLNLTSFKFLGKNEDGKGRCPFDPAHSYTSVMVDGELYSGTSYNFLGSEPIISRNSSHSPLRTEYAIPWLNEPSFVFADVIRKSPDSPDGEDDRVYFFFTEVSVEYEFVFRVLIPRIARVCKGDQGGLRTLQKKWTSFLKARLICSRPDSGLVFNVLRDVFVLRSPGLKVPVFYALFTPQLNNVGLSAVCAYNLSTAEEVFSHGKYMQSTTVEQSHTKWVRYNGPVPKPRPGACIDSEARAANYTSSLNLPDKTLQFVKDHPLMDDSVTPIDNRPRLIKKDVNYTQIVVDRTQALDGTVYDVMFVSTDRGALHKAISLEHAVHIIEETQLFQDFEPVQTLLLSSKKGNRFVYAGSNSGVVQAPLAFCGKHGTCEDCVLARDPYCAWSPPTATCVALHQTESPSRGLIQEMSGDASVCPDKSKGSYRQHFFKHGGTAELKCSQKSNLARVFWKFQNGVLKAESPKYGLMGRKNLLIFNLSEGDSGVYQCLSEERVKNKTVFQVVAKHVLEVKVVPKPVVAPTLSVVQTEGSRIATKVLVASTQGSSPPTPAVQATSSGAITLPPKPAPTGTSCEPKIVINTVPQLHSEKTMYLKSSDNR

T2: Human CD100 (human, UniProt Q92854 22-734, limits assumed)
T2 construct: also called SEMA4D; Hu CD100
T2 sequence (looked up): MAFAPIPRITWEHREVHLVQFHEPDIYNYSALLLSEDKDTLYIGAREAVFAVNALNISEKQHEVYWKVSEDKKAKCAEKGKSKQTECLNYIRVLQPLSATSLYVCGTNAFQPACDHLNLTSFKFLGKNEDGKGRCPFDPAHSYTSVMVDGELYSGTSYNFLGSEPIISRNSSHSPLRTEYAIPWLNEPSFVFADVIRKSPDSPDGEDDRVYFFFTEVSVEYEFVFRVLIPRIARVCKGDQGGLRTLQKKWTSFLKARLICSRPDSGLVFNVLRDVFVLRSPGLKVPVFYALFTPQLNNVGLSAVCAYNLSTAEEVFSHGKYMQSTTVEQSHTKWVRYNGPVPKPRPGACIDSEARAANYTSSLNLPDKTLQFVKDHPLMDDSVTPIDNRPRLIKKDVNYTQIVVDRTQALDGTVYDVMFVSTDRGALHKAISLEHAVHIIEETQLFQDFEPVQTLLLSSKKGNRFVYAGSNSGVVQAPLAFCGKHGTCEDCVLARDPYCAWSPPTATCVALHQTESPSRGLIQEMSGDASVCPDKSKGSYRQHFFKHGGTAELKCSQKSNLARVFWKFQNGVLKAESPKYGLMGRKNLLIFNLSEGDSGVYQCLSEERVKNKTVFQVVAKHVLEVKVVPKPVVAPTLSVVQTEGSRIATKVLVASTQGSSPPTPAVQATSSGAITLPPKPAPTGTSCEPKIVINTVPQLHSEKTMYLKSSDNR


Assays:
[1] = molecular target: T3, BSA (UniProt P02769 25-607); experiment: ELISA
T3 construct: Negative control antigen
T3 sequence (P02769 25-607 limits assumed): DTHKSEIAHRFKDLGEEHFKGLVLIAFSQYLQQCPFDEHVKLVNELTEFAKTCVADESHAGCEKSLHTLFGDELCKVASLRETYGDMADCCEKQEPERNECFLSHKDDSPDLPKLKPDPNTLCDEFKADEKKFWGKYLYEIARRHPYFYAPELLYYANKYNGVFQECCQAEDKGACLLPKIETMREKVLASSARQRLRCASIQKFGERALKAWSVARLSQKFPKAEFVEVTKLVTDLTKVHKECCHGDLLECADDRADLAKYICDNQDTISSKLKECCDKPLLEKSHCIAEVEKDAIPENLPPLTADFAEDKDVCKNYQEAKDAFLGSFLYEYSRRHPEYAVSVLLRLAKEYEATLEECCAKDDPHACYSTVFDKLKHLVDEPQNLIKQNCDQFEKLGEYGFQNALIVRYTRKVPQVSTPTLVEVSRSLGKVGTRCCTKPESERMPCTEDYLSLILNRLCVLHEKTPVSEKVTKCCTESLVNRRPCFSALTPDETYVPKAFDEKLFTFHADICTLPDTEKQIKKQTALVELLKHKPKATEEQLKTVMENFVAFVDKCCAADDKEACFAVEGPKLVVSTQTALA

[2] = molecular target: T4, human serum albumin (human, UniProt P02768 25-609); experiment: ELISA
T4 construct: Negative control antigen
T4 sequence (P02768 25-609 limits assumed): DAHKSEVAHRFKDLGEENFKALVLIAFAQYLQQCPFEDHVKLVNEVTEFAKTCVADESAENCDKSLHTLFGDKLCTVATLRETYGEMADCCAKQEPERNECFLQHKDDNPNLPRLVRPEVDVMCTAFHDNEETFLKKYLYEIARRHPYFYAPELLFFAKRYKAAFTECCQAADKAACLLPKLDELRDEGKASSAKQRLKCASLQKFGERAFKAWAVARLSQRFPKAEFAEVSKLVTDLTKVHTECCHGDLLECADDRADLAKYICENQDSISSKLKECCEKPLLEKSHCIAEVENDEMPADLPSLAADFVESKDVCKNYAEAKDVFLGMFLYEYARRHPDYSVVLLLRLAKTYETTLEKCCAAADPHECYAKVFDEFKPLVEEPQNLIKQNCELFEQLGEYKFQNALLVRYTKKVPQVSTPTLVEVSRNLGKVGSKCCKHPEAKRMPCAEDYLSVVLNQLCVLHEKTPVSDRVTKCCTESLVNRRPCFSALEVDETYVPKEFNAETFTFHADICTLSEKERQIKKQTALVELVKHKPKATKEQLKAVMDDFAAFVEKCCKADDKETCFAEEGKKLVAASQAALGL

[3] = molecular target: T5, streptavidin (UniProt P22629 37-163, limits assumed); experiment: ELISA
T5 construct: Negative control antigen
T5 sequence (P22629 37-163 limits assumed): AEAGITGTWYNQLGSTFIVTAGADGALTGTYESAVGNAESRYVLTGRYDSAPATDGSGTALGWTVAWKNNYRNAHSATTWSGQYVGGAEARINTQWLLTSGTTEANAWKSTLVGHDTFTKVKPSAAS

[4] = molecular target: T1, human CD100-Fc; experiment: ELISA on CD100-Fc antigen
[5] = molecular target: T6, huErb2-Fc (human, UniProt P04626 23-652); experiment: ELISA on huErb2-Fc antigen (Neg Ctrl)
T6 construct: Negative control antigen; also called huErb2-Fc antigen

[6] = molecular target: T2, Human CD100; experiment: ELISA method of Friguet et al.; column head 'Affinity (nM) IC50 ELISA'; antigen not named
Experimental: Antibody affinity was measured according to the ELISA method described in Friguet et al. (1985) J Immunol Methods 77(2):305-19.

[7] = molecular target: T6, huErb2-Fc; experiment: ELISA
[8] = molecular target: T2, Human CD100; experiment: affinity testing, method and unit not printed in Example 10 (nM as in Table 3); mutant value, before the parentheses
[9] = molecular target: T2, Human CD100; experiment: affinity testing, method and unit not printed in Example 10 (nM as in Table 3)

Binder | binding result [1] | binding result [2] | binding result [3] | Kd [6] [nM] | also measured
MAb 657 (antibody, human IgG1, V domains shown, Humanized BD16, human IgG1; also called H1235/L284) VH: QVQLVQSGAEVKKPGSSVKVSCKASGYTFTDYYMDWVRQAPGQGLEWIGRVNPYHGGATYNQKFKGKATITVDKSTSTAYMELSSLRSEDTAVYYCAREENSYDGYYGMDYWGQGTLVTVSS VL: DIVMTQSPLSLPVSPGEPATINCKSSQSLFNSGNQKNYLAWYLQKPGQPPKLLIYGASTRESGVPDRFSGSGSGTDFTLTISSLQAEDVAVYYCQNDHTYPYTFGQGTKLEIK | no binding | no binding | no binding | 0.12 | EC50 (read off the curve) [4]: ~0.03 µg/mL; binding result [5]: no binding (tested: 500 ng/ml)
MAb 1656 (antibody, human IgG1, V domains shown, Humanized BD16, fully human frameworks, human IgG1; also called H1651/L284) VH: QVQLVQSGAEVKKPGSSVKVSCKASGYTFTDYYMDWVRQAPGQGLEWMGRVNPYHGGATYNQKFKGRVTITADKSTSTAYMELSSLRSEDTAVYYCAREENSYDGYYGMDYWGQGTLVTVSS VL: DIVMTQSPLSLPVSPGEPATINCKSSQSLFNSGNQKNYLAWYLQKPGQPPKLLIYGASTRESGVPDRFSGSGSGTDFTLTISSLQAEDVAVYYCQNDHTYPYTFGQGTKLEIK | no binding | no binding | no binding | 0.12 | binding result [7]: no binding
MAb 2216 (antibody, V domains shown, H1651 mutant VH combined with L284; also called H1651 T59F with L284) VH: QVQLVQSGAEVKKPGSSVKVSCKASGYTFTDYYMDWVRQAPGQGLEWMGRVNPYHGGAFYNQKFKGRVTITADKSTSTAYMELSSLRSEDTAVYYCAREENSYDGYYGMDYWGQGTLVTVSS VL: DIVMTQSPLSLPVSPGEPATINCKSSQSLFNSGNQKNYLAWYLQKPGQPPKLLIYGASTRESGVPDRFSGSGSGTDFTLTISSLQAEDVAVYYCQNDHTYPYTFGQGTKLEIK | – | – | – | – | Kd [8]: 0.06 nM
MAb 2208 (antibody, V domains shown, H1651 mutant VH combined with L284; also called H1651 A58G with L284) VH: QVQLVQSGAEVKKPGSSVKVSCKASGYTFTDYYMDWVRQAPGQGLEWMGRVNPYHGGGTYNQKFKGRVTITADKSTSTAYMELSSLRSEDTAVYYCAREENSYDGYYGMDYWGQGTLVTVSS VL: DIVMTQSPLSLPVSPGEPATINCKSSQSLFNSGNQKNYLAWYLQKPGQPPKLLIYGASTRESGVPDRFSGSGSGTDFTLTISSLQAEDVAVYYCQNDHTYPYTFGQGTKLEIK | – | – | – | – | Kd [8]: 0.08 nM
MAb 2225 (antibody, V domains shown, H1651 mutant VH combined with L284; also called H1651 Y60V with L284) VH: QVQLVQSGAEVKKPGSSVKVSCKASGYTFTDYYMDWVRQAPGQGLEWMGRVNPYHGGATVNQKFKGRVTITADKSTSTAYMELSSLRSEDTAVYYCAREENSYDGYYGMDYWGQGTLVTVSS VL: DIVMTQSPLSLPVSPGEPATINCKSSQSLFNSGNQKNYLAWYLQKPGQPPKLLIYGASTRESGVPDRFSGSGSGTDFTLTISSLQAEDVAVYYCQNDHTYPYTFGQGTKLEIK | – | – | – | – | Kd [9]: 0.04 nM
MAb 2224 (antibody, V domains shown, H1651 mutant VH combined with L284; also called H1651 Y60P with L284) VH: QVQLVQSGAEVKKPGSSVKVSCKASGYTFTDYYMDWVRQAPGQGLEWMGRVNPYHGGATPNQKFKGRVTITADKSTSTAYMELSSLRSEDTAVYYCAREENSYDGYYGMDYWGQGTLVTVSS VL: DIVMTQSPLSLPVSPGEPATINCKSSQSLFNSGNQKNYLAWYLQKPGQPPKLLIYGASTRESGVPDRFSGSGSGTDFTLTISSLQAEDVAVYYCQNDHTYPYTFGQGTKLEIK | – | – | – | – | Kd [9]: 0.07 nM
MAb 1807 (antibody, human IgG4, V domains shown, Humanized BD16, human IgG4; also called H1235/L284) VH: QVQLVQSGAEVKKPGSSVKVSCKASGYTFTDYYMDWVRQAPGQGLEWIGRVNPYHGGATYNQKFKGKATITVDKSTSTAYMELSSLRSEDTAVYYCAREENSYDGYYGMDYWGQGTLVTVSS VL: DIVMTQSPLSLPVSPGEPATINCKSSQSLFNSGNQKNYLAWYLQKPGQPPKLLIYGASTRESGVPDRFSGSGSGTDFTLTISSLQAEDVAVYYCQNDHTYPYTFGQGTKLEIK | no binding | no binding | no binding | 0.12 | binding result [7]: no binding
